Where two headings read alike, the source gives them in different places. Where no end group is shown, it is not given here. [ ]: non-standard residue; d: D form. Apa = (S)-2-amino-4[(2-amino)pyrimidinyl]methylalanine; Phe(4-guanidino) = N=C(N)Nc1ccc(C[C@H](N)C(=O)O)cc1; Cha = N[C@@H](CC1CCCCC1)C(=O)O
How the values were obtained:
PTHR-delNt (human) = PTHR-delNt (human) (UniProt Q03431); experiment: competition binding, COS-7 membranes, 125I-[Aib1,3,M]PTH(1-15) tracer
wild-type human PTHR [1] = target: T1, wild-type human PTHR (human, UniProt Q03431 27-593); experiment: competition binding, HKRK-B7 cells, 125I-PTH(1-34) tracer
T1 sequence (looked up): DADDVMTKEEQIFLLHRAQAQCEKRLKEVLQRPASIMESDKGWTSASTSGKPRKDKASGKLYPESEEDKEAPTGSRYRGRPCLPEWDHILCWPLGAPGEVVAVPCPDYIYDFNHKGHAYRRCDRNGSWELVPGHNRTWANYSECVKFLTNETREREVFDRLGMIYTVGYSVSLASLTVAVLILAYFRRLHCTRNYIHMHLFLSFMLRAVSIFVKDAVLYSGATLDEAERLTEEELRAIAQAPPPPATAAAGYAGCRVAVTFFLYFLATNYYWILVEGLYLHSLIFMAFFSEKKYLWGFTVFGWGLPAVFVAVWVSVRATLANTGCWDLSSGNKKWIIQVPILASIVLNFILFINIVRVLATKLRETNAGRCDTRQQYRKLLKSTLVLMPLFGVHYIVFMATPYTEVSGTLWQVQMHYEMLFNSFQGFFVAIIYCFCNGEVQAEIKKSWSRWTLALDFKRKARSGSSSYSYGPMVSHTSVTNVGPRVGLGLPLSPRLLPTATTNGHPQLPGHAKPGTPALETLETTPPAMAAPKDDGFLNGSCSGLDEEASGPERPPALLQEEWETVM

[2] = target: T2, rat PTHR endogenously expressed in ROS 17/2.8 cells (rat, UniProt P25961 27-591); experiment: competition binding, ROS 17/2.8 cells, 125I-PTH(1-34) tracer
T2 construct: whole, on cells; also called endogenous PTHR; PTHR in ROS 17/2.8 cells
T2 sequence (looked up): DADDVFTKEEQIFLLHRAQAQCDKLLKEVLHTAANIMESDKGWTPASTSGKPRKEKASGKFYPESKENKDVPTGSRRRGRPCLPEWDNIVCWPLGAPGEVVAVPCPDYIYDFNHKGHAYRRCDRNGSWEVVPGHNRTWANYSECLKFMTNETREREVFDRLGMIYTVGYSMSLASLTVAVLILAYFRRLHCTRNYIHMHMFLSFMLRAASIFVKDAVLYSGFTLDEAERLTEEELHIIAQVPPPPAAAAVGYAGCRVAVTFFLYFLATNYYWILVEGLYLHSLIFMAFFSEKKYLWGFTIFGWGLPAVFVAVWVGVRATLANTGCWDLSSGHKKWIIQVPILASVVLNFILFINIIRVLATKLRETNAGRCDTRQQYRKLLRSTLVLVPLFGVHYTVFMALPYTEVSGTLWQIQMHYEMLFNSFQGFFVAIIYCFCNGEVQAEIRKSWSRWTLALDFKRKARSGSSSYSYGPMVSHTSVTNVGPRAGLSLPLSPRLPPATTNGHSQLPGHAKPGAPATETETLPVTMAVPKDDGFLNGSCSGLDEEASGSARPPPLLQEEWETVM
Experimental: Receptor binding—Binding to the wild-type human PTHR in intact HKRK-B7 cells and ROS 17/2.8 cells was assessed using ¹²⁵I-PTH(1-34) as a tracer radioligand, as described (Shimizu, M., (2001) Endocrinology 142:3068-3074). In brief, the cells in 24-well plates (about 500,000 cells per well) were incubated in binding buffer containing radioligand (about 100,000 cpm per well) with or without unlabeled peptide ligand (3×10⁻⁹ to 1×10⁻⁵ M) for four hours at 15° C. The binding mixture was then removed by aspiration, the cells were rinsed three times with binding buffer, lysed in 1 M NaOH, and the entire lysate was counted for gamma-irradiation in a gamma counter. Binding to PTHR-delNt in COS-7 cell membranes was assessed in 96-well, vacuum filtration plates (Multiscreen-Durapore HV, […], Millipore Corp., Millford, Mass.) using ¹²⁵I-[Aib^{1,3},M]PTH(1-15)NH₂ as a tracer radioligand, as described (Dean, T., (2006) Mol Endocrinol 20:931-942). In brief, cell membranes (20 μg/well) were incubated in membrane binding buffer containing radioligand (30,000 cpm/well) with or without unlabeled peptide ligand (3×10⁻⁹ to 1×10⁻⁵ M) for 90 minutes at 21° C. The plates were then subject to rapid vacuum filtration, the filters were washed once with buffer, detached from the plate and counted for gamma-irradiation in a gamma counter. Non-specific binding was defined as the binding observed in the presence of 1×10⁻⁶ M PTH(1-31)NH₂ for HKRK-B7 and ROS 17/2.8 cells, and 1×10⁻⁶ M [Aib^{1,3},M]PTH(1-15)NH₂ for PTHR-delNt. Specifically bound radioactivity was calculated as a percentage of the radioactivity specifically bound in the absence of competing ligand.
Effects on cAMP and IP signaling—Selected analogs of [Ala¹,Arg¹⁹]hPTH(1-31)NH₂ with substitutions that markedly impaired binding to HKRK-B7 cells were assessed for their capacity to bind to the PTHR in ROS 17/2.8 cells and to stimulate cAMP-signaling responses in these cells. These bone-derived cells endogenously express the rat PTHR at a more physiological level than is found in HKRK-B7 cells (approximately 80,000 PTHRs per cell vs. 950,000 PTHRs per cell) and, have generally been found (data not shown) to yield closer correlations between PTH analog binding affinity and cAMP-signaling potency than do HKRK-B7 cells, presumably due to their lower PTHR expression level.

wild-type human PTHR [3] = target: T1, wild-type human PTHR; experiment: competition binding, HKRK-B7 cells, 125I-PTH(1-34) tracer
How it was run: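 Intact HKRK-B7 cells stably expressing hPTHR incubated 4 h at 15° C with ¹²⁵I-PTH(1-34) tracer and unlabeled peptide (3×10⁻⁹ to 1×10⁻⁵ M). Nonspecific binding defined with 1×10⁻⁶ M PTH(1-31)NH₂. Bound activity counted after lysis and expressed as % specific binding without competitor; values in nM, mean ± s.e.m.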

[4] = target: T2, rat PTHR endogenously expressed in ROS …; experiment: cell-based or functional assay
wild-type human PTHR [5] = target: T1, wild-type human PTHR; experiment: competition binding, HKRK-B7 cells, 125I-PTH(1-34) tracer; remark: listed apart in the source

B1: PTH(1-31)NH2 Arg^20→Gph (peptide)
peptide: SVSEIQLMHNLGKHLNSME[Phe(4-guanidino)]VEWLRKKLQDV-NH2
modifications: N-terminus assumed
SMILES: CC[C@H](C)[C@H](NC(=O)[C@H](CCC(=O)O)NC(=O)[C@H](CO)NC(=O)[C@@H](NC(=O)[C@@H](N)CO)C(C)C)C(=O)N[C@@H](CCC(N)=O)C(=O)N[C@@H](CC(C)C)C(=O)N[C@@H](CCSC)C(=O)N[C@@H](Cc1c[nH]cn1)C(=O)N[C@@H](CC(N)=O)C(=O)N[C@@H](CC(C)C)C(=O)NCC(=O)N[C@@H](CCCCN)C(=O)N[C@@H](Cc1c[nH]cn1)C(=O)N[C@@H](CC(C)C)C(=O)N[C@@H](CC(N)=O)C(=O)N[C@@H](CO)C(=O)N[C@@H](CCSC)C(=O)N[C@@H](CCC(=O)O)C(=O)N[C@@H](Cc1ccc(NC(=N)N)cc1)C(=O)N[C@H](C(=O)N[C@@H](CCC(=O)O)C(=O)N[C@@H](Cc1c[nH]c2ccccc12)C(=O)N[C@@H](CC(C)C)C(=O)N[C@@H](CCCNC(=N)N)C(=O)N[C@@H](CCCCN)C(=O)N[C@@H](CCCCN)C(=O)N[C@@H](CC(C)C)C(=O)N[C@@H](CCC(N)=O)C(=O)N[C@@H](CC(=O)O)C(=O)N[C@H](C(N)=O)C(C)C)C(C)C
With B1 as the binder, how does the IC50 (PTHR-delNt (human)) read?
Its IC50 is 2050 nM.

What about the fold difference of IC50 from PTH(1-31)NH2 (PTHR-delNt (human)) of the same binder?
The fold difference of IC50 from PTH(1-31)NH2 was < 4 fold.

And the IC50 (wild-type human PTHR [1])?
The IC50 was > 10000 nM.

How did the IC50 (PTHR-delNt (human)) turn out when SVSEIQLMHNLGKHLNSME[Apa]VEWLRKKLQDV-NH2 [PTH(1-31)NH2 Arg^20→Apa] was run?
Its IC50 is 5740 nM.

And the fold difference of IC50 from PTH(1-31)NH2 (PTHR-delNt (human))?
The fold difference of IC50 from PTH(1-31)NH2 was < 4 fold.

What about the IC50 (wild-type human PTHR [1]) of the same binder?
The IC50 was > 10000 nM.

B2: [Ala^1,Arg^19]hPTH(1-31)NH2 Trp^23→Cha (peptide)
peptide: AVSEIQLMHNLGKHLNSMRRVE[Cha]LRKKLQDV-NH2
modifications: N-terminus assumed
SMILES: CC[C@H](C)[C@H](NC(=O)[C@H](CCC(=O)O)NC(=O)[C@H](CO)NC(=O)[C@@H](NC(=O)[C@H](C)N)C(C)C)C(=O)N[C@@H](CCC(N)=O)C(=O)N[C@@H](CC(C)C)C(=O)N[C@@H](CCSC)C(=O)N[C@@H](Cc1c[nH]cn1)C(=O)N[C@@H](CC(N)=O)C(=O)N[C@@H](CC(C)C)C(=O)NCC(=O)N[C@@H](CCCCN)C(=O)N[C@@H](Cc1c[nH]cn1)C(=O)N[C@@H](CC(C)C)C(=O)N[C@@H](CC(N)=O)C(=O)N[C@@H](CO)C(=O)N[C@@H](CCSC)C(=O)N[C@@H](CCCNC(=N)N)C(=O)N[C@@H](CCCNC(=N)N)C(=O)N[C@H](C(=O)N[C@@H](CCC(=O)O)C(=O)N[C@@H](CC1CCCCC1)C(=O)N[C@@H](CC(C)C)C(=O)N[C@@H](CCCNC(=N)N)C(=O)N[C@@H](CCCCN)C(=O)N[C@@H](CCCCN)C(=O)N[C@@H](CC(C)C)C(=O)N[C@@H](CCC(N)=O)C(=O)N[C@@H](CC(=O)O)C(=O)N[C@H](C(N)=O)C(C)C)C(C)C
For B2, which IC50 (PTHR-delNt (human)) is on record?
Its IC50 is 867 nM.

What about the fold change in binding affinity vs [Ala^1,Arg^19]PTH(1-31)NH2 (PTHR-delNt (human)) of the same binder?
The fold change in binding affinity vs [Ala^1,Arg^19]PTH(1-31)NH2 was < 3 fold.

What about the IC50 [2] of the same binder?
Its IC50 is 19 nM.

And the IC50 (wild-type human PTHR [3])?
Its IC50 is 546 nM.

And the “cAMP EC50, ROS 17/2.8 cells” value [4]?
Its value is 0.82 nM.

And the “fold reduction in binding affinity vs [Ala^1,Arg^19]PTH(1-31)NH2” value (wild-type human PTHR [5])?
The value was 14 fold.

And the “fold reduction in binding vs [Ala^1,Arg^19]PTH(1-31)NH2” value (wild-type human PTHR [5])?
The value was ~12 fold.

From patent US20100081612A1 (GENERAL HOSPITAL, published 2010)
